{
  "source": "patent CN108948202A",
  "about": "(BOAOXIN BIOTECHNOLOGY NANJING CO LTD, dated 2018)",
  "binders": {"B1": {"name": "D2G3 抗人PD1小鼠单克隆抗体 (antibody, V domains shown)", "VH": "QEQLKQSGPGLVAPSQTLSITCTVSGFSLESYGVDWVRQSPGKGLEWLGVIWGSGSTSYNSGLKSRLSISKDNSKKQVFLEMKSLQTDDTAMYYCAIDGGFASWGQGTLVTVSA", "VL": "DIVMTQAAPSVPVTPGESVSISCRSSKSLLHSNGNTYLYWFLQRPGQSPQRLIYYMSNLASGVPDRFSGRGSGTDFTLRISRVEAEDVGVYYCMQSLEYPYTFGGGTKLEIK", "notes": "Tested as a mouse monoclonal antibody from a hybridoma (supernatant or small-scale purified); also called D2G3抗体; 本发明的抗人PD1单克隆抗体"}},
  "key": {"生物素标记人PD1-Fc蛋白": {"target": "T1, 生物素标记人PD1-Fc蛋白 (human, UniProt Q15116 25-167, limits assumed, biotin-labelled (site not stated))", "T1 construct": "also called PD1Fc biotin; 人PD1抗原; not shown: Fc part", "T1 sequence (Q15116 25-167 limits assumed)": "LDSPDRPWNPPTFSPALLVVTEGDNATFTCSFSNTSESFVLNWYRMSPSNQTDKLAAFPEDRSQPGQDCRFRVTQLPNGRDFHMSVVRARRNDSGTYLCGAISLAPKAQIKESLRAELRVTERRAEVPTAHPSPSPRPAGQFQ", "assay": "capture ELISA: antibody captured by anti-mouse IgG Fc, 60 nM biotinylated human PD1-Fc"}, "[1]": {"target": "T2, 重组人PD1带his标签的蛋白 (Sino biological inc., cat#10377-H08H) (human, UniProt Q15116 25-167)", "T2 construct": "Detection antigen for serum titres and hybridoma screening; also called 人PD1-his蛋白抗原; PD1-his; not shown: his tag", "T2 sequence (Q15116 25-167 limits assumed)": "as above", "assay": "ELISA, hybridoma supernatant on coated human PD1-his"}},
  "data": [
    {"binder": "B1", "values": [
      {"measurement": "binding result", "setting": "生物素标记人PD1-Fc蛋白", "result": "binds"},
      {"measurement": "binding result", "setting": "[1]", "result": "binds"}
    ]}
  ]
}
